# Measured values taken from US20250171520A1.
# Molecular target: human CD63 (human) (UniProt P08962)
# Assay: flow cytometry, HEK293 cells endogenously expressing human CD63
# human CD63 (human), sequence (P08962 2-238 limits assumed): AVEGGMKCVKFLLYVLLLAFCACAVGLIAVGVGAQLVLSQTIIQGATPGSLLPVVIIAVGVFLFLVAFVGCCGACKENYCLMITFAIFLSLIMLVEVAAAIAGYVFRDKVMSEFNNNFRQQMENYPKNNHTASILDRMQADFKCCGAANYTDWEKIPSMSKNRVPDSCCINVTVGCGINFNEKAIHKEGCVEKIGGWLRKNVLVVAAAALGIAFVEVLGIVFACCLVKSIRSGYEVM
row,"HEK293 (S/N), MFI of antibody over wells with no antibody",Substance
1,1.4,Isotype Control 1 (antibody)
2,1.5,Isotype Control 2 (antibody)
